The text below walks through data of publication PMC6984350 (Structure (London, England : 1993), 2018).

First the molecules themselves.
T1: Filamin A domains 4-6, wild type (human, UniProt P21333 571-861)
T1 sequence (looked up): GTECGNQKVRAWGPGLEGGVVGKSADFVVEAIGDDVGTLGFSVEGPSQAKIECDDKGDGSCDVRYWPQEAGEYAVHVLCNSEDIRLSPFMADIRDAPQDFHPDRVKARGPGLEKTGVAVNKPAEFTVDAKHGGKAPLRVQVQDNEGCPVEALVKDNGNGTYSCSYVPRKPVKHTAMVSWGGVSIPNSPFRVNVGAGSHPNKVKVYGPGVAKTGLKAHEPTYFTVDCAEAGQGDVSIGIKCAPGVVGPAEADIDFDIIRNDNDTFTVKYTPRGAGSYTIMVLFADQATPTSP

B1: PTPN12 600–673 (domain or fragment, UniProt Q05209 600-673, looked up)
chain: PLHSDDSDSDERNSDGAVTQNKTNISTASATVSAATSTESISTRKVLPMSIARHNIAGTTHSGAEKDVDVSEDS
B2: PTPN12 634–709 (domain or fragment, UniProt Q05209 634-709, looked up)
chain: ATSTESISTRKVLPMSIARHNIAGTTHSGAEKDVDVSEDSPPPLPERTPESFVLASEHNTPVRSEWSELQSQERSE
B3: PTPN12 C-terminal domain (600–780) (domain or fragment, UniProt Q05209 600-780, looked up)
chain: PLHSDDSDSDERNSDGAVTQNKTNISTASATVSAATSTESISTRKVLPMSIARHNIAGTTHSGAEKDVDVSEDSPPPLPERTPESFVLASEHNTPVRSEWSELQSQERSEQKKSEGLITSENEKCDHPAGGIHYEMCIECPPTFSDKREQISENPTEATDIGFGNRCGKPKGPRDPPSEWT
B4: PTPN12–600-709 (domain or fragment, UniProt Q05209 600-709, looked up)
chain: PLHSDDSDSDERNSDGAVTQNKTNISTASATVSAATSTESISTRKVLPMSIARHNIAGTTHSGAEKDVDVSEDSPPPLPERTPESFVLASEHNTPVRSEWSELQSQERSE

Where only a bound is given, the exact number is not on record here.

The assay concerns the target T1, Filamin A domains 4-6, wild type. In words: SPR. (SPR reads the build-up and loss of mass on a sensor chip optically.)
For orientation: Kd means the constant that tells how readily two partners part at equilibrium. Molecule B1 displayed a Kd greater than 10000 µM. Molecule B2 showed an equilibrium dissociation constant (Kd) of 0.27 µM. The figure for B3 is roughly 0.33 µM; for B4 it is 0.32 µM; for PLHSDDSDSDERNSDGAVTQNKTNISTASATVSAA (domain or fragment, UniProt Q05209 600-634, looked up) [PTPN12–600-634] it is greater than 10000 µM.
